In patent US20200199241A1 (Chugai, published 2020):

Each binder was assayed against T1, human FcRn (soluble human FcRn complexed with β2-microglobulin) (human, UniProt P61769 21-119, limits assumed) (assay: SPR, pH 7.0;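 further: antibodies captured on a Protein L sensor chip with human FcRn injected as analyte, KD calculated from fitted association and dissociation rate constants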).
T1 construct: also called hFcRn

| Binder | Kd |
| --- | --- |
| IgG1-F124 (antibody, EU numbering; copies: 2 + 2) heavy: QVQLQESGPGLVKPSETLSLTCAVSGHSISHDHAWSWVRQPPGEGLEWIGFISYSGITNYNPSLQGRVTISRDNSKNTLYLQMNSLRAEDTAVYYCARSLARTTAMDYWGEGTLVTVSSASTKGPSVFPLAPSSKSTSGGTAALGCLVKDYFPEPVTVSWNSGALTSGVHTFPAVLQSSGLYSLSSVVTVPSSSLGTQTYICNVNHKPSNTKVDKKVEPKSCDKTHTCPPCPAPELLGGPSVFLFPPKPKDTLYISREPEVTCVVVDVSHEDPEVKFNWYVDGVEVHNAKTKPREEQYNSTYRVVSVLTVLHQDWLNGKEYKCKVSNKALPAPIEKTISKAKGQPREPQVYTLPPSRDELTKNQVSLTCLVKGFYPSDIAVEWESNGQPENNYKTTPPVLDSDGSFFLYSKLTVDKSRWQQGNVFSCSVLHEALHYHYTQKSLSLSP light: not shown | 290 nM |
| IgG1-F139 (antibody, EU numbering; copies: 2 + 2) heavy: QVQLQESGPGLVKPSETLSLTCAVSGHSISHDHAWSWVRQPPGEGLEWIGFISYSGITNYNPSLQGRVTISRDNSKNTLYLQMNSLRAEDTAVYYCARSLARTTAMDYWGEGTLVTVSSASTKGPSVFPLAPSSKSTSGGTAALGCLVKDYFPEPVTVSWNSGALTSGVHTFPAVLQSSGLYSLSSVVTVPSSSLGTQTYICNVNHKPSNTKVDKKVEPKSCDKTHTCPPCPAPELLGGPSVFLFPPKPKDTLWISRTPEVTCVVVDVSHEDPEVKFNWYVDGVEVHNAKTKPREEQYNSTYRVVSVLTPLHQDWLNGKEYKCKVSNKALPAPIEKTISKAKGQPREPQVYTLPPSRDELTKNQVSLTCLVKGFYPSDIAVEWESNGQPENNYKTTPPVLDSDGSFFLYSKLTVDKSRWQQGNVFSCSVMHEALHWHYTQKSLSLSP light: not shown | 15 nM |
| IgG1-F125 (antibody, EU numbering; copies: 2 + 2) heavy: QVQLQESGPGLVKPSETLSLTCAVSGHSISHDHAWSWVRQPPGEGLEWIGFISYSGITNYNPSLQGRVTISRDNSKNTLYLQMNSLRAEDTAVYYCARSLARTTAMDYWGEGTLVTVSSASTKGPSVFPLAPSSKSTSGGTAALGCLVKDYFPEPVTVSWNSGALTSGVHTFPAVLQSSGLYSLSSVVTVPSSSLGTQTYICNVNHKPSNTKVDKKVEPKSCDKTHTCPPCPAPELLGGPSVFLFPPKPKDTLYITREPEVTCVVVDVSHEDPEVKFNWYVDGVEVHNAKTKPREEQYNSTYRVVSVLTPLHQDWLNGKEYKCKVSNKALPAPIEKTISKAKGQPREPQVYTLPPSRDELTKNQVSLTCLVKGFYPSDIAVEWESNGQPENNYKTTPPVLDSDGSFFLYSKLTVDKSRWQQGNVFSCSVLHEALHYHYTQKSLSLSP light: not shown | 24 nM |
| IgG1-F129 (antibody, EU numbering; copies: 2 + 2) heavy: QVQLQESGPGLVKPSETLSLTCAVSGHSISHDHAWSWVRQPPGEGLEWIGFISYSGITNYNPSLQGRVTISRDNSKNTLYLQMNSLRAEDTAVYYCARSLARTTAMDYWGEGTLVTVSSASTKGPSVFPLAPSSKSTSGGTAALGCLVKDYFPEPVTVSWNSGALTSGVHTFPAVLQSSGLYSLSSVVTVPSSSLGTQTYICNVNHKPSNTKVDKKVEPKSCDKTHTCPPCPAPELLGGPSVFLFPPKPKDTLMISRTAEVTCVVVDVSHEDPEVKFNWYVDGVEVHNAKTKPREEQYNSTYRVVSVLTVLHQDWLNGKEYKCKVSNKALPAPIEKTISKAKGQPREPQVYTLPPSRDELTKNQVSLTCLVKGFYPSDIAVEWESNGQPENNYKTTPPVLDSDGSFFLYSKLTVDKSRWQQGNVFSCSVLHEALHYHYTQKSLSLSP light: not shown | 220 nM |
| IgG1-F134 (antibody, EU numbering; copies: 2 + 2) heavy: QVQLQESGPGLVKPSETLSLTCAVSGHSISHDHAWSWVRQPPGEGLEWIGFISYSGITNYNPSLQGRVTISRDNSKNTLYLQMNSLRAEDTAVYYCARSLARTTAMDYWGEGTLVTVSSASTKGPSVFPLAPSSKSTSGGTAALGCLVKDYFPEPVTVSWNSGALTSGVHTFPAVLQSSGLYSLSSVVTVPSSSLGTQTYICNVNHKPSNTKVDKKVEPKSCDKTHTCPPCPAPELLGGPSVFLFPPKPKDTLMISRTNEVTCVVVDVSHEDPEVKFNWYVDGVEVHNAKTKPREEQYNSTYRVVSVLTVLHQDWLNGKEYKCKVSNKALPAPIEKTISKAKGQPREPQVYTLPPSRDELTKNQVSLTCLVKGFYPSDIAVEWESNGQPENNYKTTPPVLDSDGSFFLYSKLTVDKSRWQQGNVFSCSVLHEALHYHYTQKSLSLSP light: not shown | 270 nM |
| IgG1-F133 (antibody, EU numbering; copies: 2 + 2) heavy: QVQLQESGPGLVKPSETLSLTCAVSGHSISHDHAWSWVRQPPGEGLEWIGFISYSGITNYNPSLQGRVTISRDNSKNTLYLQMNSLRAEDTAVYYCARSLARTTAMDYWGEGTLVTVSSASTKGPSVFPLAPSSKSTSGGTAALGCLVKDYFPEPVTVSWNSGALTSGVHTFPAVLQSSGLYSLSSVVTVPSSSLGTQTYICNVNHKPSNTKVDKKVEPKSCDKTHTCPPCPAPELLGGPSVFLFPPKPKDTLMISRTMEVTCVVVDVSHEDPEVKFNWYVDGVEVHNAKTKPREEQYNSTYRVVSVLTVLHQDWLNGKEYKCKVSNKALPAPIEKTISKAKGQPREPQVYTLPPSRDELTKNQVSLTCLVKGFYPSDIAVEWESNGQPENNYKTTPPVLDSDGSFFLYSKLTVDKSRWQQGNVFSCSVLHEALHYHYTQKSLSLSP light: not shown | 410 nM |
| IgG1-F137 (antibody, EU numbering; copies: 2 + 2) heavy: QVQLQESGPGLVKPSETLSLTCAVSGHSISHDHAWSWVRQPPGEGLEWIGFISYSGITNYNPSLQGRVTISRDNSKNTLYLQMNSLRAEDTAVYYCARSLARTTAMDYWGEGTLVTVSSASTKGPSVFPLAPSSKSTSGGTAALGCLVKDYFPEPVTVSWNSGALTSGVHTFPAVLQSSGLYSLSSVVTVPSSSLGTQTYICNVNHKPSNTKVDKKVEPKSCDKTHTCPPCPAPELLGGPSVFLFPPKPKDTLMISRTVEVTCVVVDVSHEDPEVKFNWYVDGVEVHNAKTKPREEQYNSTYRVVSVLTVLHQDWLNGKEYKCKVSNKALPAPIEKTISKAKGQPREPQVYTLPPSRDELTKNQVSLTCLVKGFYPSDIAVEWESNGQPENNYKTTPPVLDSDGSFFLYSKLTVDKSRWQQGNVFSCSVLHEALHYHYTQKSLSLSP light: not shown | 460 nM |
| IgG1-F136 (antibody, EU numbering; copies: 2 + 2) heavy: QVQLQESGPGLVKPSETLSLTCAVSGHSISHDHAWSWVRQPPGEGLEWIGFISYSGITNYNPSLQGRVTISRDNSKNTLYLQMNSLRAEDTAVYYCARSLARTTAMDYWGEGTLVTVSSASTKGPSVFPLAPSSKSTSGGTAALGCLVKDYFPEPVTVSWNSGALTSGVHTFPAVLQSSGLYSLSSVVTVPSSSLGTQTYICNVNHKPSNTKVDKKVEPKSCDKTHTCPPCPAPELLGGPSVFLFPPKPKDTLMISRTTEVTCVVVDVSHEDPEVKFNWYVDGVEVHNAKTKPREEQYNSTYRVVSVLTVLHQDWLNGKEYKCKVSNKALPAPIEKTISKAKGQPREPQVYTLPPSRDELTKNQVSLTCLVKGFYPSDIAVEWESNGQPENNYKTTPPVLDSDGSFFLYSKLTVDKSRWQQGNVFSCSVLHEALHYHYTQKSLSLSP light: not shown | 380 nM |

The remaining lines, values ahead:

| Kd | Binder |
| --- | --- |
| 750 nM | IgG1-F135 (antibody, EU numbering; copies: 2 + 2) heavy: QVQLQESGPGLVKPSETLSLTCAVSGHSISHDHAWSWVRQPPGEGLEWIGFISYSGITNYNPSLQGRVTISRDNSKNTLYLQMNSLRAEDTAVYYCARSLARTTAMDYWGEGTLVTVSSASTKGPSVFPLAPSSKSTSGGTAALGCLVKDYFPEPVTVSWNSGALTSGVHTFPAVLQSSGLYSLSSVVTVPSSSLGTQTYICNVNHKPSNTKVDKKVEPKSCDKTHTCPPCPAPELLGGPSVFLFPPKPKDTLMISRTSEVTCVVVDVSHEDPEVKFNWYVDGVEVHNAKTKPREEQYNSTYRVVSVLTVLHQDWLNGKEYKCKVSNKALPAPIEKTISKAKGQPREPQVYTLPPSRDELTKNQVSLTCLVKGFYPSDIAVEWESNGQPENNYKTTPPVLDSDGSFFLYSKLTVDKSRWQQGNVFSCSVLHEALHYHYTQKSLSLSP light: not shown |
| 210 nM | IgG1-F132 (antibody, EU numbering; copies: 2 + 2) heavy: QVQLQESGPGLVKPSETLSLTCAVSGHSISHDHAWSWVRQPPGEGLEWIGFISYSGITNYNPSLQGRVTISRDNSKNTLYLQMNSLRAEDTAVYYCARSLARTTAMDYWGEGTLVTVSSASTKGPSVFPLAPSSKSTSGGTAALGCLVKDYFPEPVTVSWNSGALTSGVHTFPAVLQSSGLYSLSSVVTVPSSSLGTQTYICNVNHKPSNTKVDKKVEPKSCDKTHTCPPCPAPELLGGPSVFLFPPKPKDTLMISRTIEVTCVVVDVSHEDPEVKFNWYVDGVEVHNAKTKPREEQYNSTYRVVSVLTVLHQDWLNGKEYKCKVSNKALPAPIEKTISKAKGQPREPQVYTLPPSRDELTKNQVSLTCLVKGFYPSDIAVEWESNGQPENNYKTTPPVLDSDGSFFLYSKLTVDKSRWQQGNVFSCSVLHEALHYHYTQKSLSLSP light: not shown |
| 170 nM | IgG1-F128 (antibody, EU numbering; copies: 2 + 2) heavy: QVQLQESGPGLVKPSETLSLTCAVSGHSISHDHAWSWVRQPPGEGLEWIGFISYSGITNYNPSLQGRVTISRDNSKNTLYLQMNSLRAEDTAVYYCARSLARTTAMDYWGEGTLVTVSSASTKGPSVFPLAPSSKSTSGGTAALGCLVKDYFPEPVTVSWNSGALTSGVHTFPAVLQSSGLYSLSSVVTVPSSSLGTQTYICNVNHKPSNTKVDKKVEPKSCDKTHTCPPCPAPELLGGPSVFLFPPKPKDTLMISRTLEVTCVVVDVSHEDPEVKFNWYVDGVEVHNAKTKPREEQYNSTYRVVSVLTVLHQDWLNGKEYKCKVSNKALPAPIEKTISKAKGQPREPQVYTLPPSRDELTKNQVSLTCLVKGFYPSDIAVEWESNGQPENNYKTTPPVLDSDGSFFLYSKLTVDKSRWQQGNVFSCSVLHEALHWHYTQKSLSLSP light: not shown |
| 200 nM | IgG1-F130 (antibody, EU numbering; label printed 'F130' between F149 and F152 (perhaps F150); copies: 2 + 2) heavy: QVQLQESGPGLVKPSETLSLTCAVSGHSISHDHAWSWVRQPPGEGLEWIGFISYSGITNYNPSLQGRVTISRDNSKNTLYLQMNSLRAEDTAVYYCARSLARTTAMDYWGEGTLVTVSSASTKGPSVFPLAPSSKSTSGGTAALGCLVKDYFPEPVTVSWNSGALTSGVHTFPAVLQSSGLYSLSSVVTVPSSSLGTQTYICNVNHKPSNTKVDKKVEPKSCDKTHTCPPCPAPELLGGPSVFLFPPKPKDTLYISRTPEVTCVVVDVSHEDPEVKFNWYVDGVEVHNAKTKPREEQYNSTYRVVSVLTMLHQDWLNGKEYKCKVSNKALPAPIEKTISKAKGQPREPQVYTLPPSRDELTKNQVSLTCLVKGFYPSDIAVEWESNGQPENNYKTTPPVLDSDGSFFLYSKLTVDKSRWQQGNVFSCSVMHEALHYHYTQKSLSLSP light: not shown |
| 3000 nM | IgG1-F131 (antibody, EU numbering; copies: 2 + 2) heavy: QVQLQESGPGLVKPSETLSLTCAVSGHSISHDHAWSWVRQPPGEGLEWIGFISYSGITNYNPSLQGRVTISRDNSKNTLYLQMNSLRAEDTAVYYCARSLARTTAMDYWGEGTLVTVSSASTKGPSVFPLAPSSKSTSGGTAALGCLVKDYFPEPVTVSWNSGALTSGVHTFPAVLQSSGLYSLSSVVTVPSSSLGTQTYICNVNHKPSNTKVDKKVEPKSCDKTHTCPPCPAPELLGGPSVFLFPPKPKDTLMISRTGEVTCVVVDVSHEDPEVKFNWYVDGVEVHNAKTKPREEQYNSTYRVVSVLTVLHQDWLNGKEYKCKVSNKALPAPIEKTISKAKGQPREPQVYTLPPSRDELTKNQVSLTCLVKGFYPSDIAVEWESNGQPENNYKTTPPVLDSDGSFFLYSKLTVDKSRWQQGNVFSCSVLHEALHYHYTQKSLSLSP light: not shown |
